Measured values as given in patent publication US20110319600A1.

B1: E-2 monoclonal antibody (antibody, V domains shown)
VH: QVQLQESGPGLVKPLQTLSLTCVVSGDSISRGGYYWSWVRQPPERGLEWIGDIYHSGSTNYNPALKSRTTISVETSKNQFSLQLNSVTAADTAVYYCAREPPPDYSDYKVGKGYFDYWGQGALVTVSS
VL: EIVLAQSPATLSLSPGERATLSCRASETVDTYLAWYQQKPGQAPRLLINDASKRATGIPARFSGSGSGTDFTLTISGLEPEDFAVYWCQQHSNWPPTFGQGSRLEIK
B2: B-3 monoclonal antibody (antibody, V domains shown)
VH: QVKLVQSGGGAVQPGRSLRLSCEASGFDFTVYDIHWVRQAPGKGLEWVASIWHNGGKAYYADSVKGRFTVSRDNPQKTVYLQMSGLRPEDTATYYCAREFPFMGIYDYGMDAWGQGTTVTVAS
VL: QSVLAQPPSASGTPGQRVIISCSGTSSNIGGNSVNWYQHPPGAAPRLLIYTTDQRPSGVPDRFSGSKSGTSASLAISGLQSEDEADYYCEVWDDSLTRPVFGGGTKLTVL

How the values were obtained:
[1] = biological target: hemagglutinin (HA) of human influenza B virus, B/Malaysia/2506/04 strain (human influenza B virus, B/Malaysia/2506/04 strain); experiment: cell-based or functional assay
[2] = biological target: hemagglutinin (HA) of human influenza B virus, B/Victoria/2/87 strain (human influenza B virus, B/Victoria/2/87 strain)
[3] = biological target: hemagglutinin (HA) of human influenza B virus, B/Mie/1/93 strain (human influenza B virus, B/Mie/1/93 strain)
[4] = biological target: hemagglutinin (HA) of human influenza B virus, B/Malaysia/2506/04 strain (human influenza B virus, B/Malaysia/2506/04 strain)
[5] = biological target: hemagglutinin (HA) of human influenza B virus, B/Shanghai/261/02 strain (human influenza B virus, B/Shanghai/261/02 strain)

hemagglutinin (HA) of human influenza B virus, B/Victoria/2/87 strain (human influenza B virus, B/Victoria/2/87 strain), sequence (P22092 16-585): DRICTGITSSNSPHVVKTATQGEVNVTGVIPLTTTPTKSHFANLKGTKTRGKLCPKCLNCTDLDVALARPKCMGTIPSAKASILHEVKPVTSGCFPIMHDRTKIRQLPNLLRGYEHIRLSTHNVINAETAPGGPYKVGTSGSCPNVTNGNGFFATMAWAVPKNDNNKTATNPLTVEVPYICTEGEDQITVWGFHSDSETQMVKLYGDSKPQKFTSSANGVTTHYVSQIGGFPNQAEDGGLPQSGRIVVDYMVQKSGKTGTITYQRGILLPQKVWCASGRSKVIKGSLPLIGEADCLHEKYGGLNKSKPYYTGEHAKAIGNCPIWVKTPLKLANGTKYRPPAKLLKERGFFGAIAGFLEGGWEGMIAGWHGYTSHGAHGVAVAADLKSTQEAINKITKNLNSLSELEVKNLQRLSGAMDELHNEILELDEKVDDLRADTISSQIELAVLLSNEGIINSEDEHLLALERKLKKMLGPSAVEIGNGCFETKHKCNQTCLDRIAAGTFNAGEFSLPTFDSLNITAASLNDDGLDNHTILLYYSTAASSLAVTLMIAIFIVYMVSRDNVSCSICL

Binder | HI activity [1] | Neutralization activity (% inhibition) [1] [% inhibition] | staining activity [2] | staining activity [3] | staining activity [4] | staining activity [5]
B1 | < 2 | 37.8 | > 128 | 128 | 128 | > 128
B2 | < 2 | 31.7 | 32 | 32 | 8 | 32
